# Where “and” joins values, the source holds several entries; their conditions need not be identical. Identical values can stand only once.
# Columns and labels:
# [1] = target: mouse IgG whole molecules (Pierce) (mouse); test: sandwich ELISA; capture CB on C-DNA well; IgG mixture; detected with aM-AP
# [2] = target: bovine IgG whole molecules (reagent grade, Sigma) (bovine); test: sandwich ELISA; capture BB on B-DNA well; IgG mixture; detected with aB-AP
# [3] = target: dog IgG whole molecules (reagent grade, Sigma) (dog); test: sandwich ELISA; capture CB on C-DNA well; IgG mixture; detected with aD-AP
# [4] = target: bovine IgG whole molecules (reagent grade, Sigma) (bovine); test: sandwich ELISA; biotinylated antibody directly on streptavidin well; IgG mixture; detected with aB-AP
# [5] = target: bovine IgG whole molecules (reagent grade, Sigma) (bovine); test: sandwich ELISA; capture CB on C-DNA well; IgG mixture; detected with aB-AP
# [6] = target: mouse IgG whole molecules (Pierce) (mouse); test: sandwich ELISA; biotinylated antibody directly on streptavidin well; IgG mixture; detected with aM-AP
# [7] = target: bovine IgG whole molecules (reagent grade, Sigma) (bovine); test: sandwich ELISA; capture AB on A-DNA well; IgG mixture; detected with aB-AP
# [8] = target: mouse IgG whole molecules (Pierce) (mouse); test: sandwich ELISA; capture AB on A-DNA well; IgG mixture; detected with aM-AP
# [9] = target: dog IgG whole molecules (reagent grade, Sigma) (dog); test: sandwich ELISA; capture BB on B-DNA well; IgG mixture; detected with aD-AP
# [10] = target: dog IgG whole molecules (reagent grade, Sigma) (dog); test: sandwich ELISA; capture AB on A-DNA well; IgG mixture; detected with aD-AP
# [11] = target: mouse IgG whole molecules (Pierce) (mouse); test: sandwich ELISA; capture BB on B-DNA well; IgG mixture; detected with aM-AP
# [12] = target: dog IgG whole molecules (reagent grade, Sigma) (dog); test: sandwich ELISA; capture BD on B-DNA well; IgG mixture; detected with aD-AP
# [13] = target: dog IgG whole molecules (reagent grade, Sigma) (dog); test: sandwich ELISA; biotinylated antibody directly on streptavidin well; IgG mixture; detected with aD-AP
# [14] = target: bovine IgG whole molecules (reagent grade, Sigma) (bovine); test: sandwich ELISA; capture BD on B-DNA well; IgG mixture; detected with aB-AP
# [15] = target: dog IgG whole molecules (reagent grade, Sigma) (dog); test: sandwich ELISA; capture CD on C-DNA well; IgG mixture; detected with aD-AP
# [16] = target: mouse IgG whole molecules (Pierce) (mouse); test: sandwich ELISA; capture BD on B-DNA well; IgG mixture; detected with aM-AP
# [17] = target: mouse IgG whole molecules (Pierce) (mouse); test: sandwich ELISA; capture CD on C-DNA well; IgG mixture; detected with aM-AP
# [18] = target: mouse IgG whole molecules (Pierce) (mouse); test: sandwich ELISA; capture AD on A-DNA well; IgG mixture; detected with aM-AP
# [19] = target: dog IgG whole molecules (reagent grade, Sigma) (dog); test: sandwich ELISA; capture AD on A-DNA well; IgG mixture; detected with aD-AP
# [20] = target: bovine IgG whole molecules (reagent grade, Sigma) (bovine); test: sandwich ELISA; capture AD on A-DNA well; IgG mixture; detected with aB-AP
# [21] = target: bovine IgG whole molecules (reagent grade, Sigma) (bovine); test: sandwich ELISA; capture CD on C-DNA well; IgG mixture; detected with aB-AP
# [22] = target: mouse IgG whole molecules (Pierce) (mouse); test: sandwich ELISA; capture AM on A-DNA well; IgG mixture; detected with aM-AP
# [23] = target: mouse IgG whole molecules (Pierce) (mouse); test: ELISA on mouse IgG-coated plate, A405, against controls A and B
# [24] = target: bovine IgG whole molecules (reagent grade, Sigma) (bovine); test: sandwich ELISA; capture CM on C-DNA well; IgG mixture; detected with aB-AP
# [25] = target: dog IgG whole molecules (reagent grade, Sigma) (dog); test: sandwich ELISA; capture CM on C-DNA well; IgG mixture; detected with aD-AP
# [26] = target: dog IgG whole molecules (reagent grade, Sigma) (dog); test: sandwich ELISA; capture BM on B-DNA well; IgG mixture; detected with aD-AP
# [27] = target: mouse IgG whole molecules (Pierce) (mouse); test: sandwich ELISA; capture BM on B-DNA well; IgG mixture; detected with aM-AP
# [28] = target: bovine IgG whole molecules (reagent grade, Sigma) (bovine); test: sandwich ELISA; capture BM on B-DNA well; IgG mixture; detected with aB-AP
# [29] = target: mouse IgG whole molecules (Pierce) (mouse); test: sandwich ELISA; capture CM on C-DNA well; IgG mixture; detected with aM-AP
# [30] = target: dog IgG whole molecules (reagent grade, Sigma) (dog); test: sandwich ELISA; capture AM on A-DNA well; IgG mixture; detected with aD-AP
# [31] = target: bovine IgG whole molecules (reagent grade, Sigma) (bovine); test: sandwich ELISA; capture AM on A-DNA well; IgG mixture; detected with aB-AP
substance,measurement,setting,value
"biotinylated rabbit anti-bovine IgG (#B-7140), polyclonal rabbit IgG (antibody)",absorbance reading (405 nm),[1],24
same,absorbance reading (405 nm),[2],591
same,absorbance reading (405 nm),[3],9
same,absorbance reading (405 nm),[4],279 and 319 and 265
same,absorbance reading (405 nm),[5],90
same,absorbance reading (405 nm),[6],50 and 64 and 61
same,absorbance reading (405 nm),[7],729
same,absorbance reading (405 nm),[8],146
same,absorbance reading (405 nm),[9],9
same,absorbance reading (405 nm),[10],20
same,absorbance reading (405 nm),[11],153
"biotinylated rabbit anti-dog IgG (#B-7640), polyclonal rabbit IgG (antibody)",absorbance reading (405 nm),[4],28 and 26 and 75
same,absorbance reading (405 nm),[6],20 and 24 and 35
same,absorbance reading (405 nm),[12],481
same,absorbance reading (405 nm),[13],334 and 413 and 941
same,absorbance reading (405 nm),[14],57
same,absorbance reading (405 nm),[15],102
same,absorbance reading (405 nm),[16],31
same,absorbance reading (405 nm),[17],26
same,absorbance reading (405 nm),[18],73
same,absorbance reading (405 nm),[19],673
same,absorbance reading (405 nm),[20],84
same,absorbance reading (405 nm),[21],23
"biotinylated rabbit anti-mouse IgG (#B-8520), polyclonal rabbit IgG (antibody)",absorbance reading (405 nm),[22],533
same,absorbance reading (405 nm),[4],15 and 31 and 19
same,signal-to-noise ratio,[23],60
same,absorbance reading (405 nm),[6],177 and 189 and 186
same,absorbance reading (405 nm),[24],8
same,absorbance reading (405 nm),[25],5
same,absorbance reading (405 nm),[26],4
same,absorbance reading (405 nm),[27],346
same,absorbance reading (405 nm),[28],30
same,absorbance reading (405 nm),[29],49
same,absorbance reading (405 nm),[30],8
same,absorbance reading (405 nm),[31],45

# — patent publication US7569341
